# Measured values published in paper PMC5014551, “Role of Nfu1 and Bol3 in iron-sulfur cluster transfer to mitochondrial clients” (eLife, 2016).
# T1: recombinant human BOLA1, fluorescently labelled (human, UniProt Q9Y3E2 1-137, NT-647 dye (Monolith NT Protein Labeling Kit RED))
# T1 construct: BOLA1, human mitochondrial BolA protein
# T1 sequence (looked up): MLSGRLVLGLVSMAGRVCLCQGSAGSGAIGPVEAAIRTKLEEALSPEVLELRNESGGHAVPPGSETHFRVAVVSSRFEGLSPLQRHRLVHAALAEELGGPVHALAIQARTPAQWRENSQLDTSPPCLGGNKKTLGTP
# B1: human holo-GLRX5 dimer containing the bridging [2Fe-2S] cluster (natural protein, UniProt Q86SX6 32-157, looked up)
# chain: AGSGAGGGGSAEQLDALVKKDKVVVFLKGTPEQPQCGFSNAVVQILRLHGVRDYAAYNVLDDPELRQGIKDYSNWPTIPQVYLNGEFVGGCDILLQMHQNGDLVEELKKLGIHSALLDEKKDQDSK
# modifications: bridging [2Fe-2S] cluster between two GLRX5 monomers
# notes: GLRX5, human mitochondrial monothiol glutaredoxin, chemically reconstituted; also called chemically reconstituted GLRX5; source: chemically reconstituted with Fe-S cluster in an anaerobic chamber
# Target: T1, recombinant human BOLA1, fluorescently …
# Test: MST; 200 nM NT-647 labelled protein titrated with unlabelled protein from 200 µM to 6.1 nM; 50 mM KPi pH 7.4, 150 mM NaCl, 5% glycerol, 0.05 mg/mL BSA, 0.05% Tween20; 21°C; anaerobic
# Settings: both partners purified
binder,measurement,value
B1,fold affinity against BOLA3,50 fold
